This is an account of results in US20180319873A1 (TAIPEI MEDICAL UNIVERSITY, published 2018).

As usually defined, the Kd is the free concentration of one partner at which half of the binding sites on the other are occupied at equilibrium, for simple one-to-one binding.

In experiment [1] the target is native CaENO1 of Candida albicans (alpha-enolase on the cell surface and in cell lysates) (Candida albicans) (UniProt P30575). The experiment can be described thus: flow cytometry on C. albicans SC 5314 cells, 100 ug antibody (negative control).
Experiment [2] concerns the target T1, His-CaENO1 (recombinant Candida albicans alpha-enolase with His tag) (Candida albicans, UniProt P30575 1-440).
T1 construct: Expressed from pQE30-CaENO1 in E. coli BL21, purified on Ni resin, about 49 kDa; also called recombinant CaENO1 protein; purified CaENO1; not shown: His tag from the pQE30 vector
T1 sequence (looked up): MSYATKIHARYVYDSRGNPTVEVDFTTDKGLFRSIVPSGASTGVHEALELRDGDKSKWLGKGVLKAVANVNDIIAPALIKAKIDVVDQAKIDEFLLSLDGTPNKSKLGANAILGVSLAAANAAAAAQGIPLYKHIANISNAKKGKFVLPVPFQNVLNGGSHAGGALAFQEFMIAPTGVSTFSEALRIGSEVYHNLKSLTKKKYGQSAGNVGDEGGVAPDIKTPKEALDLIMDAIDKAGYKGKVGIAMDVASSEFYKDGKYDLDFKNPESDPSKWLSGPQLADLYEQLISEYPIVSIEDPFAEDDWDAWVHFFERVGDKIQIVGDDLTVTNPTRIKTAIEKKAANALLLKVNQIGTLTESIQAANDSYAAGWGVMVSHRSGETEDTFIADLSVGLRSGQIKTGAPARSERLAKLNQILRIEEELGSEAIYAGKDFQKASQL
The experiment can be described thus: competitive ELISA, serial dilution of free His-CaENO1 mixed with 1 µg/mL CaS1, then added to coated His-CaENO1; printed as KD of CaS1 scFv. In general terms: In an ELISA, binding on a coated surface is turned into a signal by an enzyme label.

Experiment [3] deals with T1, His-CaENO1 (recombinant Candida …). The experiment can be described thus: ELISA, serial dilution of CaS1 scFv on coated recombinant CaENO1; concentration at 50% of OD.
The target is the same in experiment [4]. The experiment can be described thus: competitive ELISA, serial dilution of free CaENO1 mixed with 1 µg/mL CaS1 scFv, then added to coated CaENO1; printed as KD of CaS1 scFv.
The target is the same in experiment [5]. The experiment can be described thus: ELISA, serial dilution of CaS1 scFv on coated His-CaENO1.
Experiment [6] addresses T2, hENO1 (purified recombinant human ENO1) (human, UniProt P06733 1-434, limits assumed).
T2 construct: not shown: His tag, 'expressed and purified in the same way' as His-CaENO1
The experiment can be described thus: Western blot on purified ENO1 proteins. In general terms: In western blotting, separated proteins are transferred to a membrane and probed.

For experiment [7], the target named is T3, mENO1 (purified recombinant mouse ENO1) (mouse, UniProt P17182 1-434, limits assumed).
T3 construct: not shown: His tag, 'expressed and purified in the same way' as His-CaENO1
T3 sequence (P17182 whole entry): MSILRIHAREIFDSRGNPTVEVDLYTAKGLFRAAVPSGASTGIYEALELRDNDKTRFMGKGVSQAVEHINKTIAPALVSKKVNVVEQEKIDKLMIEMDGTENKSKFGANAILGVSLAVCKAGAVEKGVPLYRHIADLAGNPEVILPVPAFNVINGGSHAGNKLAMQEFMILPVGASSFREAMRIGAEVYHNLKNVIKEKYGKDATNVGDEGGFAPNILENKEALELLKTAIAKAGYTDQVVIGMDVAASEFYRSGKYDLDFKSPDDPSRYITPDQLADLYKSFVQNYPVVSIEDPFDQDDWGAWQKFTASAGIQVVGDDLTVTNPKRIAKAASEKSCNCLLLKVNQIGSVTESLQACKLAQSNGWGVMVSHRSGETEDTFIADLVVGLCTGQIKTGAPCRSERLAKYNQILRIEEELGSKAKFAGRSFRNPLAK
The experiment can be described thus: Western blot on purified ENO1 proteins.

T2 sequence (P06733 whole entry): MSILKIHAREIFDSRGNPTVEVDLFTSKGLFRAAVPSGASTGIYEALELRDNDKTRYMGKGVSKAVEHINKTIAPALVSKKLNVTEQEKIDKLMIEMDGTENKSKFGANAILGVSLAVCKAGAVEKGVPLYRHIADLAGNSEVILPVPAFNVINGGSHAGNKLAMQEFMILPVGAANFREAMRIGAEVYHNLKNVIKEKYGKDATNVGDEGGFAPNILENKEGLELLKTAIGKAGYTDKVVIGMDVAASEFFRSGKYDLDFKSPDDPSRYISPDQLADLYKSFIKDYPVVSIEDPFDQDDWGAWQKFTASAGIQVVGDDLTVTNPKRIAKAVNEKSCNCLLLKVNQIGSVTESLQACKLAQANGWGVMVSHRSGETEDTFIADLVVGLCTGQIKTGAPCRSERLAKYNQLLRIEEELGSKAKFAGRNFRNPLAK

Take control scFv (irrelevant scFv): the % FITC fluorescence reaction in experiment [1] worked out at 23%.

B1: CaS1 scFv (anti-CaENO1 scFv monoclonal antibody) (scFv)
scFv: ALTQPSSVSANLGGTVKITCSGGSGSYGWYQQKSPGSAPVTVIYSNNQRPSNIPSRFSGSPSGSTGTLTITGVQADDEAVYFCGSRDSSYVGVFGAGTTLTVLGQSSRSSTVTLDESGGGLQTPRGALSLVCKASGFTFIDYGMQWVRQAPGKGLEWVAGIGSSGSSTNYGAAVKGRATISRDDGQSTVRLQLNNLRAEDTGTYYCAKSAGGYCVNGAGCNGGSIDAWGHGTEVIVSS
notes: Chicken scFv from a phage library in pComb3X, expressed in E. coli, purified on Ni Sepharose; also called scFv CaS1; His-CaS1 scFv; not shown: His tag (and HA tag) from the pComb3X vector
For B1, the dissociation constant Kd in experiment [2] came out at 89 nM; in experiment [3], 0.498 µg/mL; in experiment [4], 4.45 µg/mL; in experiment [5], 18.8 nM. The binding result in experiment [6] and in experiment [7] was “binds” each time.
